Measured values published in publication PMC3174958.

Target: EPO-hyFc (human)
Assay: Western blotting; purified EPO-hyFc blotted with anti-EPO and anti-human IgG antibodies; gel conditions not told

Substance: EPO-hyFc (Fc fusion)
- stoichiometry N: 2
